The source of these data is paper PMC6160412, “Structural insights into modulation and selectivity of transsynaptic neurexin–LRRTM interaction” (Nature Communications, 2018).

What all share (settings): both partners purified
In test [1] the target is T1, human LRRTM2 LRR domain, wild type (human, UniProt O43300 34-371).
T1 construct: signal peptide in the construct; human LRRTM2 LRR domain, residues 1-371 cloned (residues 34-371 are named for the crystallised protein); Secreted with its own signal peptide; the mature protein probably begins at residue 34, as in the crystallised protein; also called LRRTM2^WT; hLRRTM2; source: Expi293F, transiently expressed, purified from culture medium (Ni-NTA, SEC)
T1 sequence (looked up): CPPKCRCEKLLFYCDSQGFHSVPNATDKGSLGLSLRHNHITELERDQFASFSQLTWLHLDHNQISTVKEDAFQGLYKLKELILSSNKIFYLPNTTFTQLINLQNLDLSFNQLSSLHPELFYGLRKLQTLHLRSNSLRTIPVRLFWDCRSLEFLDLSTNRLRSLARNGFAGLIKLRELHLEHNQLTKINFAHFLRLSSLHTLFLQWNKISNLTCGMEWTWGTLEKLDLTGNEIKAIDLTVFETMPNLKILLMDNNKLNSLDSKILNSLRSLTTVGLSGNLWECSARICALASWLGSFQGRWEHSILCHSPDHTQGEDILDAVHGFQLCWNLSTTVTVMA
The test is described as follows: SPR; Biacore T200; wild-type or mutant LRRTM immobilised on a CM5 chip by amine coupling; Nrxn1β as analyte in two-fold dilutions from 40 µM (from 160 µM for +S4 and R206A); 25 °C; 20 mM Hepes-NaOH pH 7.5, 150 mM NaCl, 2 mM CaCl2, 0.005% Tween-20, 0.5 g/L BSA; equilibrium KD. On the technique in general: In SPR one partner is held on a chip, and binding of the other changes the refractive index at the surface.

In test [2] the target is T1, human LRRTM2 LRR domain, wild type. Kind of test: ITC; MicroCal Auto-iTC, 25 °C; LRRTM2 (15 µM) in the cell, Nrxn1β (200 µM) injected; 20 mM Hepes-NaOH pH 7.5, 150 mM NaCl, 2 mM CaCl2, 0.005% Tween-20, no BSA; one-site model.
Test [3] has as its target T2, human LRRTM2 LRR domain, D352A mutant (human, UniProt O43300 34-371, D352A).
T2 construct: signal peptide in the construct; human LRRTM2 LRR domain, residues 1-371 cloned, with D352A; also called LRRTM2 D352A; source: Expi293F, transiently expressed, purified from culture medium (Ni-NTA, SEC)
T2 sequence (looked up): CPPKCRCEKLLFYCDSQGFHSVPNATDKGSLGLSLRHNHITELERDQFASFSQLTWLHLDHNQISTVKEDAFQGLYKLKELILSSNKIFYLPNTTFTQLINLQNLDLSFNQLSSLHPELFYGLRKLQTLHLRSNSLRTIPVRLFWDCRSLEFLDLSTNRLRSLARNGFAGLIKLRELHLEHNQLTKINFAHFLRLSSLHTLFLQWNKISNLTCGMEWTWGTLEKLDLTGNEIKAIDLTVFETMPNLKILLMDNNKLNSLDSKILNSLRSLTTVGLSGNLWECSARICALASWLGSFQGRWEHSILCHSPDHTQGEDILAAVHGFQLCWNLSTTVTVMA
Kind of test: SPR; Biacore T200; wild-type or mutant LRRTM immobilised on a CM5 chip by amine coupling; Nrxn1β as analyte in two-fold dilutions from 40 µM (from 160 µM for +S4 and R206A); 25 °C; 20 mM Hepes-NaOH pH 7.5, 150 mM NaCl, 2 mM CaCl2, 0.005% Tween-20, 0.5 g/L BSA; equilibrium KD.

The target of test [4] is T3, human LRRTM2 LRR domain, H355A mutant (human, UniProt O43300 34-371, H355A).
T3 construct: signal peptide in the construct; human LRRTM2 LRR domain, residues 1-371 cloned, with H355A; Neuraminidase was added before crystallization to trim N-linked glycans; also called LRRTM2^H355A; hLRRTM2^H355A; source: Expi293F, transiently expressed, purified from culture medium (Ni-NTA, SEC); for crystallization coexpressed with Nrxn1β (–S4) LNS and separated by SEC
T3 sequence (looked up): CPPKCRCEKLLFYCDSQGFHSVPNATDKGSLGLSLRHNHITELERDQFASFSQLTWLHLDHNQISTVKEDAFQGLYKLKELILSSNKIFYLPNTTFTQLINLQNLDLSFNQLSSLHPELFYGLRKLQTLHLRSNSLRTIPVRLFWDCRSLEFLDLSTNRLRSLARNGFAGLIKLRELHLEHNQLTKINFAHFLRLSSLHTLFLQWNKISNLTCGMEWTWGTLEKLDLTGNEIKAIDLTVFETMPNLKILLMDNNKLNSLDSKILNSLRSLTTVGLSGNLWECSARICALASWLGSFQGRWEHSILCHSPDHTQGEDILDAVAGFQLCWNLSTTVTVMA
Described as above.

The target of test [5] is T4, human LRRTM2 LRR domain, F357Y mutant (human, UniProt O43300 34-371, F357Y).
T4 construct: signal peptide in the construct; human LRRTM2 LRR domain, residues 1-371 cloned, with F357Y; also called LRRTM2^F357Y; source: Expi293F, transiently expressed, purified from culture medium (Ni-NTA, SEC)
T4 sequence (looked up): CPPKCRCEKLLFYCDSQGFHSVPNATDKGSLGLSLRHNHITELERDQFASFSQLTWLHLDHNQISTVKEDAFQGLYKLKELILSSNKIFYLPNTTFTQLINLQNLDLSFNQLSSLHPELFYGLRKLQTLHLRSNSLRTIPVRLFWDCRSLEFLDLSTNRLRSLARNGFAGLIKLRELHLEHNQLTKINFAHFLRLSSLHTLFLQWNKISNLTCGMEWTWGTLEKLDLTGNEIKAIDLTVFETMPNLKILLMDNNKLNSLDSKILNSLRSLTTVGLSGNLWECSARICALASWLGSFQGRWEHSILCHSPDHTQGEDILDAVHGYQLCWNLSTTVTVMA
The description is as above.

B1: human Nrxn1β LNS domain (–S4), R206A mutant (domain or fragment)
chain: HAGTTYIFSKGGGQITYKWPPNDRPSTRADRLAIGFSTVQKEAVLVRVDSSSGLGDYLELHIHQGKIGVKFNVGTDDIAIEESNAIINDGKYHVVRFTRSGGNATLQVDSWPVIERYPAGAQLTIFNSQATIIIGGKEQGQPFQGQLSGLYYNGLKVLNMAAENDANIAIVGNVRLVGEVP
modifications: Ca2+-bound (2 mM CaCl2). Entry P58400 carries the S4 insert at 205-234, so paper (-S4) residues 205-266 are entry 235-296 (R206 = R236).
Consider B1, for which the Kd (usually the concentration at which binding is half-saturated) in test [1] was more than 160 µM.

B2: human Nrxn1β LNS domain with the S4 insert (+S4) (domain or fragment)
chain: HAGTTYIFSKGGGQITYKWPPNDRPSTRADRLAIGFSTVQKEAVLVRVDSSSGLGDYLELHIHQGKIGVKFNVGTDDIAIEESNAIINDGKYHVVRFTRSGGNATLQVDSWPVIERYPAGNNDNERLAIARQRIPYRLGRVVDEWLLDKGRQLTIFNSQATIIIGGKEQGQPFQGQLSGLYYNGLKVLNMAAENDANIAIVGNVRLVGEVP
modifications: Ca2+-bound (2 mM CaCl2). S4 insert is entry residues 205-234.
In test [1], B2 returned a Kd of more than 80 µM.

B3: human Nrxn1β LNS domain (–S4), wild type (domain or fragment)
chain: not shown
notes: human neurexin-1β LNS domain, splice variant without the S4 insert, residues 86-266; numbers count on: human Nrxn1β (–S4) (NM_001330092.1); also called Nrxn1β (–S4); Nrxin1β (–S4); source: Expi293F, transiently expressed, purified from culture medium (Ni-NTA, SEC); for crystallization coexpressed with LRRTM2 LRR and separated by SEC
In the case of B3, the Kd is 4.2 µM in test [2], 4.3 µM in test [4] and 4 µM in test [1]. Moreover, the “fold decrease in affinity against wild-type LRRTM2” value in test [3] was more than 9 fold; in test [5], approximately 5 fold.
